From patent publication US20250276082A1 (INNOLAKE BIOPHARMA HANGZHOU, published 2025)

T1: B7H3-hFc (UniProt Q5ZPR3 29-466, limits assumed)
T1 construct: Construct limits, linker and Fc not described; also called B7H3-hFc protein; not shown: human Fc (hFc)
T1 sequence (looked up): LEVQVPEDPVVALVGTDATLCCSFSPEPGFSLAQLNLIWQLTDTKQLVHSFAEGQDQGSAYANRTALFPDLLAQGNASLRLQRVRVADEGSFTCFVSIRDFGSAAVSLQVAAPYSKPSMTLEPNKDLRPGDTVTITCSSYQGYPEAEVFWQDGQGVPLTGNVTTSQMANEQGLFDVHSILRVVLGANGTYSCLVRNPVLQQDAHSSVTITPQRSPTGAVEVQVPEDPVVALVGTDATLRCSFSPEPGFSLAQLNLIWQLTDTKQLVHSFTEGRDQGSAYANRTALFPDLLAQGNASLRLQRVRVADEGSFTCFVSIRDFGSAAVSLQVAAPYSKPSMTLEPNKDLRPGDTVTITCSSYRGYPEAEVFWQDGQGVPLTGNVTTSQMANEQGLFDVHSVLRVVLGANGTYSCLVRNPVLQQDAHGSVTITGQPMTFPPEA

T2: B7H3 on the cell surface (PC9 cells; 293T-B7H3 cells) (UniProt Q5ZPR3 29-534, limits assumed)
T2 construct: whole, on cells; both carry B7H3 on the surface; also called Cell Surface B7H3; B7H3 protein in PC9 cells
T2 sequence (looked up): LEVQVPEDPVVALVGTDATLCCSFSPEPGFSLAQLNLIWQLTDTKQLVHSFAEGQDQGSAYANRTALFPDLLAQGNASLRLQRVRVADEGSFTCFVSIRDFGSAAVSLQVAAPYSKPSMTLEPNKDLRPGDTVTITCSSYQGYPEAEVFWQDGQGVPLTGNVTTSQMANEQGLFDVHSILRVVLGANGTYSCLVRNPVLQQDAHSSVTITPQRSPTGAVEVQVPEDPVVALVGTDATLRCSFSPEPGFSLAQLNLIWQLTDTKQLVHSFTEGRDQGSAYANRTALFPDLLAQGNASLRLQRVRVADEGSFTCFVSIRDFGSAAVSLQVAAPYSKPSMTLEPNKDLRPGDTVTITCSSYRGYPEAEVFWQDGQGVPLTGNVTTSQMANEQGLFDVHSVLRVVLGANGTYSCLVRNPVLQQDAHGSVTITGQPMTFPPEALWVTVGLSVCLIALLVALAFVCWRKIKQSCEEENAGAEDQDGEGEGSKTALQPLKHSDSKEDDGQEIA


How the values were obtained:
B7H3-hFc = target: T1, B7H3-hFc; test: ELISA, B7H3-hFc coated plate, purified hybridoma antibody
Method: (1) Screening of B7H3-binding positive clones through ELISA: 50 μL of B7H3-hFc (final concentration: 2 μg/mL) was used to coat each well of a 96-well ELISA plate (Corning, Cat. No.: 9018), and incubated overnight at room temperature. After the ELISA plate was rinsed with washing buffer (PBS+0.05% Tween20) 3 times, blocking buffer (PBS+2% BSA (Sigma, Cat. No.: V90093)) was added and the ELISA plate was incubated at room temperature for 1 hour. The ELISA plate was rinsed with washing buffer 3 times; and hybridoma supernatant was added, and the ELISA plate was incubated at room temperature for 1 hour and rinsed 3 times. 100 μL of 10,000-fold diluted HRP-conjugated goat anti-mouse IgG secondary antibody (Thermo, Cat. No.: 31432) was added to each well, and the ELISA plate was incubated at room temperature for 1 hour in the dark and rinsed 3 times. 100 μL of TMB (Biocytogen, Cat. No.: ES-002) was added to each well, and the ELISA plate was incubated at room temperature for color development for 2 minutes, 100 μL of reaction terminating solution (2N H2SO4) was added to each well to terminate the color reaction, and an OD450 value of each well was read using a microplate reader (Tecan Spark). (2) Screening of B7H3-binding positive clones through FACS: 50 μL of the positive hybridoma supernatant or purified hybridoma antibody in the foregoing test was mixed with 50 μL of 293T-B7H3 cells (2×10⁵ cells/well), and a resulting mixture was added to a 96-well plate with a U-shaped bottom and left standing at 4° C. for 1 hour, the 96-well plate was rinsed with FACS buffer (PBS+3% FCS) and centrifuged twice, then 400-fold diluted PE-labeled goat anti-mouse secondary antibody (Biolegend, Cat. No.: 405307) was added, the 96-well plate was incubated at 4° C. for 30 minutes in the dark, rinsed with FACS buffer and centrifuged twice, and signal values of the cells in a PE channel were detected by using BD Accuri C6 flow cytometer. (3) Subcloning: Positive multiclonal hybridoma cells identified by ELISA and FACS were subcloned using the limiting dilution method. The subclones were further detected and screened using ELISA and FACS to obtain positive hybridoma monoclonal clones.
ELISA and FACS were conducted to detect the binding ability of purified antibody samples to B7H3. Results are shown in FIG. 1(a-b), FIG. 2(a-b) and Table 1.

[1] = target: T2, B7H3 on the cell surface (PC9 cells; …); test: FACS on cells carrying B7H3 (PC9 per FIG. 2; 293T-B7H3 per method)

Row | Binder | EC50 (B7H3-hFc) [µg/mL] | EC50 [1] [µg/mL]
1 | 7B7 (antibody, mouse IgG2b, V domains shown, Murine hybridoma antibody; also called B7H3 hybridoma monoclonal antibody 7B7) VH: EVKLVESGGGLVRPGGSLKLSCAASGFTFSSYAVSWVRQTPEKRLEWVASISGGGIYIYYPDSVKGRFTISRDNAKNNLYLQMNSLTPDDTALYYCARHGGAGYFDYWGQGTTLTVSS VL: DSLMTQSPASLSASVGETVTITCRGSESVHSYLAWYQQKQGKSPQLLVYNAKTLQSGVPSRFSGSGSGTQFSLRINSLQPEDFGTYYCQQHYGSPPWTFGGGTILEIK | 0.0097 | 0.179
2 | 2F7 (antibody, mouse IgG2b, V domains shown, Murine hybridoma antibody; also called B7H3 hybridoma monoclonal antibody 2F7) VH: QVQLQQPGAELVKPGASVKLSCKASGYTFTSYYIYWLKQRPGQGLEWIGGIKPSNGDTNFNAKFMNKATLTVDKSSSTAYMQLSSLTSEDSAIYYCTRFFYGSPYDFDVWGAGTTVTVSS VL: NIVMTQSPKSMSMAVGERVTLTCKASENVDTHVSWYQQKPEQSPTLLMYGTSNRFTGVPDRFTGSGSATDFTLTISSVQAEDLADYHCGQSYRYPYTFGGGTKLEIK | 0.00278 | 0.177
3 | 15A2 (antibody, mouse IgG1, V domains shown, Murine hybridoma antibody; also called B7H3 hybridoma monoclonal antibody 15A2) VH: QVQLQQSGPEVVKPGALVRISCKASGYTFTSYDINWVKQRPGQGLEWIGWIDPGDGSTKYNEKFKGKATLTADKSSSTAYMQFSSLTSENSAVYFCVRRGFDYWGQGTTLTVSS VL: QILLTQSPAIMSASPGEKVTMTCRTSSSVSYLHWFQQKPGSSPKLWIHDTSNLASGFPARFSGSGSGTSYSLIISSMEAEDAATYYCHQRSSYPWTFGGGTKLEIK | 0.00151 | 0.0062
4 | 7F5 (antibody, mouse IgG1, V domains shown, Murine hybridoma antibody purified by protein A; also called B7H3 hybridoma monoclonal antibody 7F5) VH: EVQLQQSGAELVRPGALVKLSCKTSGFNIKAYYIHWVKQRPEQGLEWIGWIDPENGNTFYDPKFQGKASITADTSSNTAYLQLSSLTSEDAAVYYCTRSSTRLRPFDYWGQGTTLTVSS VL: DIVMTQAAFSNPVTLGTSASISCRSSKSLLHSNGITYLYWYLQKSGQSPQLLIYQMSNLASGVPDRFSSSGSGTDFTLRISRVEAEDVGVYYCAQNLELYTFGGGTKLEIK | 0.00576 | 0.197
5 | 13A2 (antibody, mouse IgG2b, V domains shown, Murine hybridoma antibody; also called B7H3 hybridoma monoclonal antibody 13A2) VH: EVQLQQSGPELVKPGASVKISCKTSGYTFTEYVMHWVKQRHGQSLEWIGGINPNTGGTTYNQKFEGKATLTVDKSSSSAYMEFRSLTSEDSAVYYCARRMPFGISAMDYWGQGTSVTVSS VL: QIVLTQSPAIMSASPGEKVTMTCSASSSVSYIHWFQQKSGTSPKRWISETSKLASGVPARFSGSGSGTSYSLTISSMGAEDAATYYCHQWISYPPTFGAGTKLELK | 0.00052 | 0.101
6 | 2F12 (antibody, mouse IgG1, V domains shown, Murine hybridoma antibody; also called B7H3 hybridoma monoclonal antibody 2F12) VH: EVQLQQSGPELVKSGASVNISCKTSGYTFTENTMHWVKLSHGKSLEWIGGINPNNGGTTYNQKFKGKATLTVDKSSSTAYMELRSLTSEDSAVYYCARRGRWPPDWYFDVWGAGTTVTVSS VL: QIVLTQSPAIMSASPGEKVTMTCSASSSLSYMHWYQQKSGTSPKRWIYDTSKLASGVPARFSGSGSGTSYSLTISSMEAEDAATYYCQQWSSNPLTFGAGTKLELK | – | 0.217
7 | 2A9 (antibody, mouse IgG2b, V domains shown, Murine hybridoma antibody; also called B7H3 hybridoma monoclonal antibody 2A9) VH: EVQLQQSGPELVKPGASVKISCKTSGYTFTEYIMHWVKQSRGKSLEWIGGINPNSGGTTYNEKFKGKATLTVDKSASTAYMELRSLTSEDSAIYYCARRMPYWYFDVWGAGTTVTVSS VL: QIVLTQSPAIMSASPGEKVTMTCSASSSVSYIHWYRQKSGTSPKRWVYDTSKLASGVPARFSGSGSGTSYSLTISSMEAEDAATYYCQQWVSNPLTFGAGTKLELK | 0.00624 | 0.186
8 | 9C8 (antibody, mouse IgG1, V domains shown, Murine hybridoma antibody; also called B7H3 hybridoma monoclonal antibody 9C8) VH: EVQLQQSGPELVKPGASVKISCKTSGYTFTEYTIHWVKQSHGKSLEWIGGINPNSGGTTYNLKFKGKATLTVDKSSSTVYMELRSLTSEDSAVYYCARKEGFFTTDYWGQGTTLTVSS VL: QTVLTQSPAIMSASPGEKVTMTCSASSSLSYIHWYRQKSGTSPKRWIYDTSNLATGVPVRFSGSGSGTSYSLTISSMEAEDAATYYCQQWHYNPPTFGGGTKLEIK | 0.0104 | 0.0861
9 | 7E6 (antibody, mouse IgG1, V domains shown, Murine hybridoma antibody; also called B7H3 hybridoma monoclonal antibody 7E6) VH: QVQLQQSGPELVRPGVSVKISCKGSGYTFTDYAMHWVKQSHAKSLEWIGVINSYYGNTHYNQKFKGKATMTVDKSSSTAYMELARLTSEDSAIYYCARAGGYSYGSSYRPDRFAYWGQGTLVIVSA VL: DIQMTQSPASQSASLGESVTITCLASQTIGTWLAWYQQKPGKSPQLLIYAATNLADGVPSRFSGSGSGTKFSFKISSLQAEDFVSYYCQQLYSTPYTFGGGTKLEIK | 0.00449 | 0.0526
10 | 5B6 (antibody, mouse IgG1, V domains shown, Murine hybridoma antibody; also called B7H3 hybridoma monoclonal antibody 5B6) VH: QVQLQQSGAELARPGASVKMSCKTSGYTFITYTIHWVKQRPGQGLEWIGYINPTSDYANFNQKFKDKATLTADKSSRTAYMQLSSLTSEDSAVYYCARWGTTVFQFYFDYWGQGTTLTVSS VL: QIVLSQSPAILSASPGEKVTMTCRASQSLSYINWYQLKPGSSPKPWIYATSSLQSGVPARFSGSASGTSYSLTISRVEAEDAATYFCQHWSSDPPTIGGGTKLEIK | 0.00493 | 0.0713
11 | 7C9 (antibody, mouse IgG1, V domains shown, Murine hybridoma antibody; also called B7H3 hybridoma monoclonal antibody 7C9) VH: EVQLQQSGTELVRPGALVKLSCKASALNIKDFYMHWVKQRPERGLEWIGWIDPDNGNTIYDPKFQGKASITADISSSTAYLQLSSLTSEDTAVYYCARSSTRQRPFDYWGQGTTLTVSS VL: DIVMTQSHKVMSTSVGDRVSITCKASQDVRTGVAWYQQKPGQSPKLLIYSAFYRYTGVPDRFTVSGSGADFTFTITSVQAEDLAVYYCQQYYSIPWTFGGGTKLEIK | 0.0099 | 0.103
12 | 14B3 (antibody, mouse IgG1, V domains shown, Murine hybridoma antibody; also called B7H3 hybridoma monoclonal antibody 14B3) VH: QVQLQQSGPELVRPGVSVKISCKGSGYTFTDHAIHWVKQSHAKSLEWIGVINTYSGNTNFNQKLKGKATMTVDKSSSTAYMELARLTSEDSAIYYCARGAHSSGYPYWYFDVWGAGTTVTVSS VL: QIVLSQSPAILSASAGEKVTMTCRASSSVSYMHWYQQKPGSSPKPWIYATSNLASGVPARFSGSGSGTSYSLTISRVEAEDAATYYCQQWSTNPFTFGSGTKLEMK | 0.0091 | 0.248
13 | 2E10 (antibody, mouse IgG2a, V domains shown, Murine hybridoma antibody; also called B7H3 hybridoma monoclonal antibody 2E10) VH: EVQLQQSGPELVKPGASVKISCKTSGYTFTEYTMHWVKQSHGKNLEWIGGINTDNGGTTYSQKFKDKATLTVDRSSSTAYMVLRSLTSEDSAVYYCARSFNNYGPAWFAYWGQGALVTVSA VL: DIVMTQSHKFMSTSIGDRVSITCKASQDVRSAVAWYQQRPGQSPKLLIYWASTRHTGVPARFTGSGSGTDYTLTINNVQSEDLAGYFCQQYSSYFTFGGGTKLEKK | 0.0067 | 0.234
